According to article PMC6712498:

Target: Gaussia princeps luciferase (Gluc)-LiDps fusion protein (Gaussia princeps | Listeria innocua)
Experiment: native gel or EMSA + other: TEM; purified refolded Gluc-LiDps; native gel with HuAFn and LiDps as molecular weight markers, and morphological characterization by TEM

stoichiometry N: 12 subunits
Substance: Gaussia princeps luciferase (Gluc)-LiDps fusion protein
